{"source": "patent US20230265151A1", "about": "“GIP/GLP1 CO-AGONIST COMPOUNDS” (priority 2020, published 2023)", "binders": {"B1": {"name": "Y-Aib-EGT-αMeF(2F)-TSD-4Pal-SI-αMeL-LD-Orn-K((2-[2-(2-Amino-ethoxy)-ethoxy]-acetyl)2-CO-(CH2)12-CO2H)AQ-Aib-EFI-(D-Glu)-αMeY-LIEGGK((2-[2-(2-Amino-ethoxy)-ethox … (peptide)", "peptide": "YXEGTXTSDXSIXLDXKAQXEFIXXLIEGGKSSGAPPPS", "modifications": "Aib2, αMeF(2F)6, 4Pal10, αMeL13, Orn16, K17(Z1), Aib20, D-Glu24, αMeY25, K31(Z1), C-term NH2; Z1=AEEA2-CO-(CH2)12-CO2H"}, "B2": {"name": "Y-Aib-EGT-αMeF(2F)-TSD-4Pal-SI-αMeL-LD-Orn-K((2-[2-(2-Amino-ethoxy)-ethoxy]-acetyl)2-(γ-Glu)-CO-(CH2)12-CO2H)AQ-Aib-EFIK((2-[2-(2-Amino-ethoxy)-ethoxy]-acetyl)2 … (peptide)", "peptide": "B1 peptide with X24K, K31P", "modifications": "Aib2, αMeF(2F)6, 4Pal10, αMeL13, Orn16, K17(Z1), Aib20, K24(Z1), αMeY25, C-term NH2; Z1=AEEA2-(γ-Glu)-CO-(CH2)12-CO2H"}, "B3": {"name": "Y-Aib-EGT-αMeF(2F)-TSD-Ac5c-SI-αMeL-LD-Orn-K((2-[2-(2-Amino-ethoxy)-ethoxy]-acetyl)2-(γ-Glu)-CO-(CH2)12-CO2H)AQ-Aib-EFI-(D-Glu)-αMeY-LIEGGK((2-[2-(2-Amino-ethox … (peptide)", "peptide": "B1 peptide", "modifications": "Aib2, αMeF(2F)6, Ac5c10, αMeL13, Orn16, K17(Z1), Aib20, D-Glu24, αMeY25, K31(Z1), C-term NH2; Z1=AEEA2-(γ-Glu)-CO-(CH2)12-CO2H"}, "B4": {"name": "Y-Aib-EGT-αMeF(2F)-TSD-αMeL-SI-aMeL-LD-Orn-K((2-[2-(2-Amino-ethoxy)-ethoxy]-acetyl)2-(γ-Glu)-CO-(CH2)12-CO2H)AQ-Aib-EFI-(D-Glu)-αMeY-LIEGGK((2-[2-(2-Amino-ethox … (peptide)", "peptide": "B1 peptide", "modifications": "Aib2, αMeF(2F)6, αMeL10, αMeL13, Orn16, K17(Z1), Aib20, D-Glu24, αMeY25, K31(Z1), C-term NH2; Z1=AEEA2-(γ-Glu)-CO-(CH2)12-CO2H"}, "B5": {"name": "Y-Aib-EGT-αMeF(2F)-TSD-4Pal-SI-αMeL-LD-Orn-K((2-[2-(2-Amino-ethoxy)-ethoxy]-acetyl)-(εK)-(γ-Glu)-CO-(CH2)12-CO2H)AQ-Aib-EFI-(D-Glu)-αMeY-LIEGGK((2-[2-(2-Amino-e … (peptide)", "peptide": "B1 peptide", "modifications": "Aib2, αMeF(2F)6, 4Pal10, αMeL13, Orn16, K17(Z1), Aib20, D-Glu24, αMeY25, K31(Z1), C-term NH2; Z1=AEEA-(εK)-(γ-Glu)-CO-(CH2)12-CO2H"}, "B6": {"name": "Y-Aib-EGT-αMeF(2F)-TSD-4Pal-SI-αMeL-LD-Orn-K((εK)-(2-[2-(2-Amino-ethoxy)-ethoxy]-acetyl)-(γ-Glu)-CO-(CH2)12-CO2H)AQ-Aib-EFI-(D-Glu)-αMeY-LIEGGK((εK)-(2-[2-(2-Am … (peptide)", "peptide": "B1 peptide", "modifications": "Aib2, αMeF(2F)6, 4Pal10, αMeL13, Orn16, K17(Z1), Aib20, D-Glu24, αMeY25, K31(Z1), C-term NH2; Z1=(εK)-AEEA-(γ-Glu)-CO-(CH2)12-CO2H"}, "B7": {"name": "Y-Aib-EGT-αMeF(2F)-TSD-4Pal-SI-αMeL-LD-Orn-IAQ-Aib-EFI-(D-Glu)-αMeY-LIK((2-[2-(2-Amino-ethoxy)-ethoxy]-acetyl)2-(γ-Glu)-CO-(CH2)12-CO2H)GGK((2-[2-(2-Amino-ethox … (peptide)", "peptide": "B1 peptide with K17I, E28K", "modifications": "Aib2, αMeF(2F)6, 4Pal10, αMeL13, Orn16, Aib20, D-Glu24, αMeY25, K28(Z1), K31(Z1), C-term NH2; Z1=AEEA2-(γ-Glu)-CO-(CH2)12-CO2H"}, "B8": {"name": "Y-Aib-EGT-αMeF(2F)-TSDK((2-[2-(2-Amino-ethoxy)-ethoxy]-acetyl)2-(γ-Glu)-CO-(CH2)10-CH3)-Aib-I-αMeL-LD-Orn-K((2-[2-(2-Amino-ethoxy)-ethoxy]-acetyl)2-(γ-Glu)-CO-( … (peptide)", "peptide": "B1 peptide with X10K, S11X, K31P", "modifications": "Aib2, αMeF(2F)6, K10(Z1), Aib11, αMeL13, Orn16, K17(Z1), Aib20, D-Glu24, αMeY25, C-term NH2; Z1=AEEA2-(γ-Glu)-CO-(CH2)10-CH3"}, "B9": {"name": "Y-Aib-EGT-αMeF(2F)-TSD-4Pal-SI-αMeL-LD-Orn-K((2-[2-(2-Amino-ethoxy)-ethoxy]-acetyl)2-(γ-Glu)-CO-(CH2)10-CH3)AQ-Aib-K((2-[2-(2-Amino-ethoxy)-ethoxy]-acetyl)2-(γ- … (peptide)", "peptide": "B1 peptide with E21K, K31P", "modifications": "Aib2, αMeF(2F)6, 4Pal10, αMeL13, Orn16, K17(Z1), Aib20, K21(Z1), D-Glu24, αMeY25, C-term NH2; Z1=AEEA2-(γ-Glu)-CO-(CH2)10-CH3"}}, "note": "Substitutions are numbered along the chain they refer to."}
{"target": "T1, human GIP receptor (human, UniProt P48546 22-466)", "T1 construct": "whole, on cells; also called hGIPR; human glucose-dependent insulinotropic polypeptide receptor", "T1 sequence (looked up)": "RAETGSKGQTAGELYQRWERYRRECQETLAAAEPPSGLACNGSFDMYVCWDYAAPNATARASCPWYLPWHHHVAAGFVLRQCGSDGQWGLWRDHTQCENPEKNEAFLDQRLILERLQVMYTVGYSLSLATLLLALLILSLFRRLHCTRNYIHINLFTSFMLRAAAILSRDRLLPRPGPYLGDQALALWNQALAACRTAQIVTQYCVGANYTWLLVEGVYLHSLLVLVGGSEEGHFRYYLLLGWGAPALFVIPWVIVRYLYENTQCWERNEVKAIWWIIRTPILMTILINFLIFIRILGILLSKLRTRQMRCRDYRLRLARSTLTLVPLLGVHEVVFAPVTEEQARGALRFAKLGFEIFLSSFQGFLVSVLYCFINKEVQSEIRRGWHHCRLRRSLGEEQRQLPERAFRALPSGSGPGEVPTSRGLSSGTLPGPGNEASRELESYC", "assay": "SPA competition vs [125I]-GIP, hGIPR membranes", "units": {"Ki": "nM"}}
{"binder": "B1", "Ki": 0.0557}
{"binder": "B2", "Ki": 0.054}
{"binder": "B3", "Ki": 0.085}
{"binder": "B4", "Ki": 0.0741}
{"binder": "B5", "Ki": 0.077}
{"binder": "B6", "Ki": 0.103}
{"binder": "B7", "Ki": 0.0722}
{"binder": "B8", "Ki": 0.0161}
{"binder": "B9", "Ki": 0.0403}
{"target": "T2, human GLP-1 receptor (human, UniProt P43220 24-463)", "T2 construct": "whole, on cells; also called hGLP-1R; human glucagon-like peptide-1 receptor", "assay": "SPA competition vs [125I]-GLP-1, hGLP-1R membranes", "protocol": "The binding buffer contains 25 mM HEPES, pH 7.4, 2.5 mM CaCl₂, 1 mM MgCl₂, 0.1% (w/v) bacitracin, 0.003% (w/v) TWEEN®-20, and Roche Complete™ Protease Inhibitors without EDTA.\nData are analyzed using four-parameter (curve maximum, curve minimum, IC₅₀, Hill slope) nonlinear regression routines (Genedata Screener, version 12.0.4, Genedata AG, Basal, Switzerland). […] Values for Kᵢ are reported as the geometric mean, with error expressed as the standard error of the mean (SEM) and n is equal to the number of independent replicates (determined in assays performed on different days). Geometric Means are calculated as follows: […]", "units": {"Ki": "nM"}}
{"binder": "B2", "Ki": 1.4}
{"binder": "B3", "Ki": 1.46}
{"binder": "B4", "Ki": 1.64}
{"binder": "B5", "Ki": 1.38}
{"binder": "B6", "Ki": 1.47}
{"binder": "B7", "Ki": 1.96}
{"binder": "B8", "Ki": 0.289}
{"binder": "B9", "Ki": 0.25}
{"target": "T3, human glucagon receptor (human, UniProt P47871 26-477)", "T3 construct": "whole, on cells; also called hGCGR; hGcgR", "T3 sequence (P47871 26-477)": "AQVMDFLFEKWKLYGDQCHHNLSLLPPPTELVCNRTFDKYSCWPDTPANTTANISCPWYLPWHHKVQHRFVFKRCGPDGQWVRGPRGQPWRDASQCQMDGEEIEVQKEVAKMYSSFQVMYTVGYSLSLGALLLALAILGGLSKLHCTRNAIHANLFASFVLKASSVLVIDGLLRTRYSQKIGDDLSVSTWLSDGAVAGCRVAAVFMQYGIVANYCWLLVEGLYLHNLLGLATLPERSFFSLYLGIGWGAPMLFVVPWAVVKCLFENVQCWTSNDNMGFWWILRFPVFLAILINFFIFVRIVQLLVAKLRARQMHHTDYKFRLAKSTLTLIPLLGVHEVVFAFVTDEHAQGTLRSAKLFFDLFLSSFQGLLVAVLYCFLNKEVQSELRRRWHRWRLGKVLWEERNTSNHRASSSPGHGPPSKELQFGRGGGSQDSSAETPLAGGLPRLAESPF", "assay": "SPA competition vs [125I]-Gcg, hGcgR membranes", "protocol": "The binding buffer contains 25 mM 4-(2-hydroxyethyl)-1-piperazineethanesulfonic acid (HEPES), pH 7.4, 2.5 mM CaCl₂, 1 mM MgCh, 0.1% (w/v) bacitracin (Research Products), 0.003% (w/v) Polyoxyethylenesorbitan monolaurate (TWEEN®-20), and Roche Complete™ Protease Inhibitors without EDTA. […] Plates are sealed and mixed on a plate shaker (setting 6) for 1 minute and read with a PerkinElmer Trilux MicroBeta® scintillation counter after 12 hours of incubation/settling time at room temperature.\nData are analyzed using four-parameter (curve maximum, curve minimum, IC₅₀, Hill slope) nonlinear regression routines (Genedata Screener, version 12.0.4, Genedata AG, Basal, Switzerland). […] Values for Kᵢ are reported as the geometric mean, with error expressed as the standard error of the mean (SEM) and n is equal to the number of independent replicates (determined in assays performed on different days).", "units": {"Ki": "nM"}}
{"binder": "B1", "Ki": 209}
{"binder": "B2", "Ki": 707}
{"binder": "B3", "Ki": 274}
{"binder": "B4", "Ki": 51.7}
{"binder": "B5", "Ki": 868}
{"binder": "B6", "Ki": 611}
{"binder": "B7", "Ki": 139}
{"binder": "B8", "Ki": 132}
{"binder": "B9", "Ki": 8.29}
